From publication PMC2801267 come the findings set out here.

The target in series [1] is Ku70/80 heterodimer (Ku) (human? (HeLa cells), UniProt P12956;P13010 1-609;1-732). In words: biotin pull-down.
The target of series [2] is Ku70/80 heterodimer (Ku);DNA-PKcs (human? (HeLa cells);human? (HeLa cells), UniProt P12956;P13010;P78527 1-609;1-732;1-4128, |). Kind of series: biotin pull-down.

Ku70/80 heterodimer (Ku), sequence (P12956 whole entry, chain 1 of 2): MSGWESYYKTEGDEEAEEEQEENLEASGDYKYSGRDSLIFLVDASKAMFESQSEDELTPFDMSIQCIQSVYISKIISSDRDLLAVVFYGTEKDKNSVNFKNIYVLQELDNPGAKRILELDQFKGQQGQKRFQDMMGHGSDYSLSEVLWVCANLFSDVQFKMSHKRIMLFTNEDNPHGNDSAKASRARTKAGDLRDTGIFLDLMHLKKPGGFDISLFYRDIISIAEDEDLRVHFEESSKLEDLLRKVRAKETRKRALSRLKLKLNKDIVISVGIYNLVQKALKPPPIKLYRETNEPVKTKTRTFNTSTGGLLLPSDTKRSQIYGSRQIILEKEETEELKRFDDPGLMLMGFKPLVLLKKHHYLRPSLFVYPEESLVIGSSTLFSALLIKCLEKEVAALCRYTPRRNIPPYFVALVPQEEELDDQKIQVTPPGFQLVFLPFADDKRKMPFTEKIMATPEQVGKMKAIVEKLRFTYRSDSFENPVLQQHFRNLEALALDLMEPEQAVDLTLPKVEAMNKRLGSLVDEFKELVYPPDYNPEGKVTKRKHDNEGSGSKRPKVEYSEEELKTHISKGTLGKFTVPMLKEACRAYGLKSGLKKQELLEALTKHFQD
Ku70/80 heterodimer (Ku), sequence (P13010 whole entry, chain 2 of 2): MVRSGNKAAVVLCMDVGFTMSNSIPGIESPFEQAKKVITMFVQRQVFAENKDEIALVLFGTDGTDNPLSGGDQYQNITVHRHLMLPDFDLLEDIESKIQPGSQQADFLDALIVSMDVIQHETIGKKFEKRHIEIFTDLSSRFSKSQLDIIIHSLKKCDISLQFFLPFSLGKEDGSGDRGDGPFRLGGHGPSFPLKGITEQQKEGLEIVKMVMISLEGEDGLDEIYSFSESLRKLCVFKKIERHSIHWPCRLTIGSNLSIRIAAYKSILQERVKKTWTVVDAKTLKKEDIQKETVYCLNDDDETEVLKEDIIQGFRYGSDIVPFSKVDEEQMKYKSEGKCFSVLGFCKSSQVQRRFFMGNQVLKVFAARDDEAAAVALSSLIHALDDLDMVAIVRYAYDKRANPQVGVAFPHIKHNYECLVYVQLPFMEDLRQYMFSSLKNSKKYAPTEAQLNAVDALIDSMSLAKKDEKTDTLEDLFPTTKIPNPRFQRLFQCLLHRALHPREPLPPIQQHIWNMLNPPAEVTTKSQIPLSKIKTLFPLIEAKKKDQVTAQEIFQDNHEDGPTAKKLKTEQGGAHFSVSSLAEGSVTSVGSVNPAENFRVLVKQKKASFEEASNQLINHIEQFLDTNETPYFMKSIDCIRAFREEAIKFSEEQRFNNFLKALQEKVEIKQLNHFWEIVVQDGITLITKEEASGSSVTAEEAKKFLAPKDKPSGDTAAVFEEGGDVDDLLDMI

B1: 1 x biotin 40-bp dsDNA (dsDNA)
DNA 1: GGATACACAACAGACCGCAACACTCAGATTACTTTTCGCC
DNA 2: GGCGAAAAGTAATCTGAGTGTTGCGGTCTGTTGTGTATCC
modifications: 5'-biotin on oligo 1
Take B1: the binding result in series [1] and in series [2] was “binds” throughout.
